Laboratory results taken from patent US20240109955A1.

Legend:
Assay in all cases: cell-based or functional assay
[1] = molecular target: SARS-CoV-2 spike protein, Kappa variant (B.1.617.1) (SARS-CoV-2)
[2] = molecular target: SARS-CoV-2 spike (S) protein, Omicron variant BA.2.12.1 (SARS-CoV-2) (UniProt P0DTC2)
[3] = molecular target: SARS-CoV-2 spike protein, C.1.2 variant (SARS-CoV-2)
[4] = molecular target: SARS-CoV-2 spike protein, Alpha variant (B.1.1.7) (SARS-CoV-2)
[5] = molecular target: SARS-CoV-2 spike protein, Iota variant (B.1.526) (SARS-CoV-2)
[6] = molecular target: SARS-CoV-2 spike protein, Lambda variant (C.37) (SARS-CoV-2)
[7] = molecular target: SARS-CoV-2 spike protein, Beta variant 1 (B.1.351 v1) (SARS-CoV-2)
[8] = molecular target: SARS-CoV-2 spike protein, Mu variant (B.1.621) (SARS-CoV-2)
[9] = molecular target: SARS-CoV-2 spike (S) protein, Omicron variant BA.2 (SARS-CoV-2) (UniProt P0DTC2)
[10] = molecular target: SARS-CoV-2 spike protein, Gamma variant (P.1) (SARS-CoV-2)
[11] = molecular target: SARS-CoV-2 spike protein, Delta variant (B.1.617.2) (SARS-CoV-2)
[12] = molecular target: SARS-CoV-2 spike (S) protein, Omicron variant BA.1 (SARS-CoV-2) (UniProt P0DTC2)
[13] = molecular target: SARS-CoV-2 spike protein, Delta variant (AY.1) (SARS-CoV-2)
[14] = molecular target: SARS-CoV-2 spike protein, Omicron variant (B.1.1.529) (SARS-CoV-2) (UniProt P0DTC2)
[15] = molecular target: SARS-CoV-2 spike protein, Beta variant 1 (B.1.351.v1) (SARS-CoV-2)
[16] = molecular target: SARS-CoV-2 spike (S) protein, Mu variant (B.1.621) (SARS-CoV-2) (UniProt P0DTC2)
[17] = molecular target: SARS-CoV-2 spike (S) protein, Omicron variant BA.4/5 (SARS-CoV-2) (UniProt P0DTC2)
[18] = molecular target: SARS-CoV-2 spike (S) protein, C.1.2 variant (SARS-CoV-2) (UniProt P0DTC2)
[19] = molecular target: SARS-CoV-2 spike (S) protein, Omicron sublineage BA.4.6 (R346T, F486V) (SARS-CoV-2) (UniProt P0DTC2)
[20] = molecular target: SARS-CoV-2 Omicron BA.4.6 spike protein (R346T, F486V) (SARS-CoV-2) (UniProt P0DTC2)
[21] = molecular target: SARS-CoV-2 spike (S) protein, Omicron sublineage BA.4.7 (R346S, F486V) (SARS-CoV-2) (UniProt P0DTC2)
[22] = molecular target: SARS-CoV-2 spike (S) protein, Omicron sublineage BA.1.1 (R346K) (SARS-CoV-2) (UniProt P0DTC2)
[23] = molecular target: SARS-CoV-2 spike (S) protein, Omicron sublineage BF.7 (R346T, F486V) (SARS-CoV-2) (UniProt P0DTC2)
[24] = molecular target: SARS-CoV-2 spike (S) protein, Omicron sublineage BQ 1.1 (R346T, K444T, F486V) (SARS-CoV-2) (UniProt P0DTC2)
[25] = molecular target: SARS-CoV-2 spike protein, Omicron sublineage BF.7 (R346T, F486V) (SARS-CoV-2) (UniProt P0DTC2)
[26] = molecular target: SARS-CoV-2 spike protein, Omicron sublineage BA.4.6 (R346T, F486V) (SARS-CoV-2) (UniProt P0DTC2)
[27] = molecular target: SARS-CoV-2 spike protein, Omicron sublineage BQ.1.1 (R346T, K444T, F486V) (SARS-CoV-2) (UniProt P0DTC2)
[28] = molecular target: SARS-CoV-2 spike protein, Omicron sublineage BA.4.7 (R346S, F486V) (SARS-CoV-2) (UniProt P0DTC2)
[29] = molecular target: SARS-CoV-2 spike protein, Omicron sublineage BA.1.1 (R346K) (SARS-CoV-2) (UniProt P0DTC2)

Sequence of A19-46 mAb (antibody) (VH): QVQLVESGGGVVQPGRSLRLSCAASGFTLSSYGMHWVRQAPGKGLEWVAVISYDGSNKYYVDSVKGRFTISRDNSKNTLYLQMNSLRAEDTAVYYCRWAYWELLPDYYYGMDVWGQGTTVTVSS
Sequence of A19-46 mAb (antibody) (VL): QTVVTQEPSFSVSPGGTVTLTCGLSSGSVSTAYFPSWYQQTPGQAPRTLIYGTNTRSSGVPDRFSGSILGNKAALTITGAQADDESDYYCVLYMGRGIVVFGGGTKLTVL
Sequence of MX184 (B1-182 × A19-61) (bispecific antibody) (chain): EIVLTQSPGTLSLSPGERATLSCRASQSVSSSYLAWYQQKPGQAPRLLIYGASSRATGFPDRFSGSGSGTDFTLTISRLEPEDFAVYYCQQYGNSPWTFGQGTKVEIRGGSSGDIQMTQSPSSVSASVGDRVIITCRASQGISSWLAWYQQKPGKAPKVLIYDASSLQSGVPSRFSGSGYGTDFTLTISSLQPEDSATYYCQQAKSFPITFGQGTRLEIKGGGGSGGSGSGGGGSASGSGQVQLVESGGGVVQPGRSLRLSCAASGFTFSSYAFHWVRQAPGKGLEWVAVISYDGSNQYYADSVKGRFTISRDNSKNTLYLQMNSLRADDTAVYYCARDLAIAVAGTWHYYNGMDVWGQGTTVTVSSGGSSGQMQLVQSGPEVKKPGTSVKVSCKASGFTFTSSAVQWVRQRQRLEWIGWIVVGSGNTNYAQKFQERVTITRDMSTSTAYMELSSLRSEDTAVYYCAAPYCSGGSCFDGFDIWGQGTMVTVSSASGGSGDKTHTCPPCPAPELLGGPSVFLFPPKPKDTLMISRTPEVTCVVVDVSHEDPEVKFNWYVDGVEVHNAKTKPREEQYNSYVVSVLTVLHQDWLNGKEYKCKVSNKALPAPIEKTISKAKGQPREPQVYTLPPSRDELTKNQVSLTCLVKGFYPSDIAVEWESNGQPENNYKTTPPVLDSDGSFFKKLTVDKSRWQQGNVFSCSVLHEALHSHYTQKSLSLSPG
Sequence of MX413 (A19-61 x A23-58H/B1-182L) (bispecific antibody) (chain): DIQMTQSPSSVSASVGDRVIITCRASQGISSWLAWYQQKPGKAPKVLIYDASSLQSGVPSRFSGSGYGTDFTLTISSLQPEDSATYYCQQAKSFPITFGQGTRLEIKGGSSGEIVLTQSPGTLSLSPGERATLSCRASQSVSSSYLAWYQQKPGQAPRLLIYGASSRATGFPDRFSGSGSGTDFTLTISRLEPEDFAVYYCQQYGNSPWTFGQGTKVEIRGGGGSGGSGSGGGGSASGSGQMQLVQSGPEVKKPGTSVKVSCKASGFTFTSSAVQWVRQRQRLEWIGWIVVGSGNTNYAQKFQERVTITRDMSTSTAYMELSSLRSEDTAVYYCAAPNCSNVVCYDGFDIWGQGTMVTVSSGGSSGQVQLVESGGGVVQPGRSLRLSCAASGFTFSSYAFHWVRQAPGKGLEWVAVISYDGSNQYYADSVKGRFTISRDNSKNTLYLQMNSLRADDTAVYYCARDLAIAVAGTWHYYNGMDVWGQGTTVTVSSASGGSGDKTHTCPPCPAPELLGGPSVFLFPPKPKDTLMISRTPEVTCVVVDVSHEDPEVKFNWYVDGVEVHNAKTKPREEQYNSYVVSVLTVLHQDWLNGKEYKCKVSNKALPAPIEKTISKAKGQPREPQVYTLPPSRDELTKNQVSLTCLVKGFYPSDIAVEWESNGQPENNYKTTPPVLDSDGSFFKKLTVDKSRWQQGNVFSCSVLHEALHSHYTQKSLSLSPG
Sequence of MX492 (A19-46 x A23-58H/B1-182L) (bispecific antibody) (chain): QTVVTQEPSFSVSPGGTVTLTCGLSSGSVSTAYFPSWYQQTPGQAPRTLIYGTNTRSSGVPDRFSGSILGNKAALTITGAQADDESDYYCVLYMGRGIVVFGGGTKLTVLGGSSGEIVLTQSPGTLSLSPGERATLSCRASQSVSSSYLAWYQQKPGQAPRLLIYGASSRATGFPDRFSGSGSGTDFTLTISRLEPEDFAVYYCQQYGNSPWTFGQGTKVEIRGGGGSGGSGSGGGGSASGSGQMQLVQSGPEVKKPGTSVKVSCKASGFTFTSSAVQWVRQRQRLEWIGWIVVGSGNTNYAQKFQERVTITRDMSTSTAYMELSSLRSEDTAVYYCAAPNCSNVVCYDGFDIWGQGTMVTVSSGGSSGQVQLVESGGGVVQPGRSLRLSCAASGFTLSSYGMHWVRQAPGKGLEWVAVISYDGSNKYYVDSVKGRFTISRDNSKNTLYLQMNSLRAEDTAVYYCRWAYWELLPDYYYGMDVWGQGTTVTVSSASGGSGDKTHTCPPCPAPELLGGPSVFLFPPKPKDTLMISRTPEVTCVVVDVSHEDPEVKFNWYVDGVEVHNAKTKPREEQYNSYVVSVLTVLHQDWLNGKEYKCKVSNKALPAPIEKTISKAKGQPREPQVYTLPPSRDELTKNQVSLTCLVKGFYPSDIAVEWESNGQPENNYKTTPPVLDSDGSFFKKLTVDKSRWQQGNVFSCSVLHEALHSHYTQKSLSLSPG

A19-46 mAb (antibody)
IC50, pseudovirus neutralization [1]: > 66.7 nM
IC80, pseudovirus neutralization [1]: > 66.7 nM
IC50, pseudovirus neutralization [2]: > 66.7 nM
IC80, pseudovirus neutralization [2]: > 66.7 nM
IC50, pseudovirus neutralization [3]: 11.6 nM
IC80, pseudovirus neutralization [3]: 21 nM
IC50, pseudovirus neutralization [4]: 0.19 nM
IC80, pseudovirus neutralization [4]: 0.486 nM
IC50, pseudovirus neutralization [5]: 0.803 nM
IC80, pseudovirus neutralization [5]: 1.88 nM
IC50, pseudovirus neutralization [6]: > 66.7 nM
IC80, pseudovirus neutralization [6]: > 66.7 nM
IC50, pseudovirus neutralization [7]: 0.807 nM
IC80, pseudovirus neutralization [7]: 2.07 nM
IC50, pseudovirus neutralization [8]: 1.34 nM
IC80, pseudovirus neutralization [8]: 3.81 nM
IC50, pseudovirus neutralization [9]: 0.0645 nM
IC80, pseudovirus neutralization [9]: 0.177 nM
IC50, pseudovirus neutralization [10]: 0.26 nM
IC80, pseudovirus neutralization [10]: 0.7 nM
IC50, pseudovirus neutralization [11]: > 66.7 nM
IC80, pseudovirus neutralization [11]: > 66.7 nM
IC50, pseudovirus neutralization [12]: 0.958 nM
IC80, pseudovirus neutralization [12]: 2.28 nM
IC50, pseudovirus neutralization [13]: > 66.7 nM
IC80, pseudovirus neutralization [13]: > 66.7 nM

A19-61 mAb (antibody)
IC50, pseudovirus neutralization [1]: 0.0815 nM
IC80, pseudovirus neutralization [1]: 0.173 nM
IC50, pseudovirus neutralization [2]: 0.11 nM
IC80, pseudovirus neutralization [2]: 0.298 nM
IC50, pseudovirus neutralization [3]: 8.43 nM
IC80, pseudovirus neutralization [3]: > 66.7 nM
IC50, pseudovirus neutralization [4]: 0.175 nM
IC80, pseudovirus neutralization [4]: 0.325 nM
IC50, pseudovirus neutralization [5]: 0.0418 nM
IC80, pseudovirus neutralization [5]: 0.0836 nM
IC50, pseudovirus neutralization [6]: 0.11 nM
IC80, pseudovirus neutralization [6]: 0.186 nM
IC50, pseudovirus neutralization [7]: 0.0686 nM
IC80, pseudovirus neutralization [7]: 0.113 nM
IC50, pseudovirus neutralization [8]: 0.264 nM
IC80, pseudovirus neutralization [8]: 0.43 nM
IC50, pseudovirus neutralization [9]: 0.725 nM
IC80, pseudovirus neutralization [9]: 2.24 nM
IC50, pseudovirus neutralization [10]: 0.135 nM
IC80, pseudovirus neutralization [10]: 0.288 nM
IC50, pseudovirus neutralization [11]: 0.209 nM
IC80, pseudovirus neutralization [11]: 0.292 nM
IC50, pseudovirus neutralization [12]: > 66.7 nM
IC80, pseudovirus neutralization [12]: > 66.7 nM
IC50, pseudovirus neutralization [13]: 0.0557 nM
IC80, pseudovirus neutralization [13]: 0.121 nM

A23-58.1 (antibody)
IC50, pseudovirus neutralization [14]: 98.1 nM
IC80, pseudovirus neutralization [14]: 782 nM

A23_58.1 (antibody)
pseudovirus neutralization IC50 (nM (inferred)) [2]: 0.647
pseudovirus neutralization IC80 (nM (inferred)) [2]: 4.96
IC50, pseudovirus neutralization [15]: 0.123 nM
IC80, pseudovirus neutralization [15]: 0.339 nM
pseudovirus neutralization IC50 (nM (inferred)) [16]: 0.124
pseudovirus neutralization IC80 (nM (inferred)) [16]: 0.26
pseudovirus neutralization IC50 (nM (inferred)) [17]: > 66.7
pseudovirus neutralization IC80 (nM (inferred)) [17]: > 66.7
IC50, pseudovirus neutralization [4]: 0.0329 nM
IC80, pseudovirus neutralization [4]: 0.104 nM
pseudovirus neutralization IC50 (nM (inferred)) [9]: 1.72
pseudovirus neutralization IC80 (nM (inferred)) [9]: 6.12
IC50, pseudovirus neutralization [10]: 0.0097 nM
IC80, pseudovirus neutralization [10]: 0.0437 nM
pseudovirus neutralization IC50 (nM (inferred)) [18]: 0.0287
pseudovirus neutralization IC80 (nM (inferred)) [18]: 0.0656
IC50, pseudovirus neutralization [11]: 0.0133 nM
IC80, pseudovirus neutralization [11]: 0.0358 nM
pseudovirus neutralization IC50 (nM (inferred)) [12]: 0.853
pseudovirus neutralization IC80 (nM (inferred)) [12]: 4.24

B1-182 mAb (antibody)
IC50, pseudovirus neutralization [1]: 0.0261 nM
IC80, pseudovirus neutralization [1]: 0.086 nM
IC50, pseudovirus neutralization [2]: 0.739 nM
IC80, pseudovirus neutralization [2]: 5.92 nM
IC50, pseudovirus neutralization [3]: 0.0549 nM
IC80, pseudovirus neutralization [3]: 0.11 nM
IC50, pseudovirus neutralization [4]: 0.0262 nM
IC80, pseudovirus neutralization [4]: 0.0844 nM
IC50, pseudovirus neutralization [5]: 0.0639 nM
IC80, pseudovirus neutralization [5]: 0.183 nM
IC50, pseudovirus neutralization [6]: 0.0049 nM
IC80, pseudovirus neutralization [6]: 0.015 nM
IC50, pseudovirus neutralization [7]: 0.0357 nM
IC80, pseudovirus neutralization [7]: 0.139 nM
IC50, pseudovirus neutralization [8]: 0.0695 nM
IC80, pseudovirus neutralization [8]: 0.219 nM
IC50, pseudovirus neutralization [9]: 2.34 nM
IC80, pseudovirus neutralization [9]: 8.19 nM
IC50, pseudovirus neutralization [10]: 0.0182 nM
IC80, pseudovirus neutralization [10]: 0.0429 nM
IC50, pseudovirus neutralization [11]: 0.0099 nM
IC80, pseudovirus neutralization [11]: 0.0254 nM
IC50, pseudovirus neutralization [12]: 1.03 nM
IC80, pseudovirus neutralization [12]: 4.44 nM
IC50, pseudovirus neutralization [13]: 0.008 nM
IC80, pseudovirus neutralization [13]: 0.0192 nM

MX184 (B1-182 × A19-61) (bispecific antibody)
IC50, pseudovirus neutralization [4]: 0.0772 nM
IC80, pseudovirus neutralization [4]: 0.186 nM
IC50, pseudovirus neutralization [7]: 0.0441 nM
IC80, pseudovirus neutralization [7]: 0.12 nM
IC50, pseudovirus neutralization [10]: 0.0325 nM
IC80, pseudovirus neutralization [10]: 0.137 nM
IC50, pseudovirus neutralization [11]: 0.0129 nM
IC80, pseudovirus neutralization [11]: 0.0458 nM
IC50, pseudovirus neutralization [12]: 47.6 nM
IC80, pseudovirus neutralization [12]: > 66.7 nM
IC50, pseudovirus neutralization [13]: 0.0174 nM
IC80, pseudovirus neutralization [13]: 0.03 nM

MX413 (A19-61 x A23-58H/B1-182L) (bispecific antibody)
IC50, pseudovirus neutralization [19]: 56 nM
IC80, pseudovirus neutralization [19]: 155 nM
IC50, pseudovirus neutralization [20]: 10 nM
IC80, pseudovirus neutralization [20]: 25 nM
IC50, pseudovirus neutralization [21]: 77.9 nM
IC80, pseudovirus neutralization [21]: 126 nM
IC50, pseudovirus neutralization [22]: 2.24 nM
IC80, pseudovirus neutralization [22]: 10.5 nM
IC50, pseudovirus neutralization [23]: 28.1 nM
IC80, pseudovirus neutralization [23]: 177 nM
IC50, pseudovirus neutralization [24]: > 10000 nM
IC80, pseudovirus neutralization [24]: > 10000 nM

MX492 (A19-46 x A23-58H/B1-182L) (bispecific antibody)
IC50, pseudovirus neutralization [19]: 21.4 nM
IC80, pseudovirus neutralization [19]: 24.5 nM
IC50, pseudovirus neutralization [20]: > 10000 nM
IC80, pseudovirus neutralization [20]: > 10000 nM
IC50, pseudovirus neutralization [21]: 13.3 nM
IC80, pseudovirus neutralization [21]: 154 nM
IC50, pseudovirus neutralization [22]: 8.77 nM
IC80, pseudovirus neutralization [22]: 68 nM
IC50, pseudovirus neutralization [23]: > 10000 nM
IC80, pseudovirus neutralization [23]: > 10000 nM
IC50, pseudovirus neutralization [24]: > 10000 nM
IC80, pseudovirus neutralization [24]: > 10000 nM

MX500 (A19-46 × A23-58H/B1-182L/A23-58H/B1-182L × A19-61)
IC50, pseudovirus neutralization [2]: 0.0655 nM
IC80, pseudovirus neutralization [2]: 0.145 nM
IC50, pseudovirus neutralization [9]: 0.0151 nM
IC80, pseudovirus neutralization [9]: 0.0503 nM
IC50, pseudovirus neutralization [12]: 0.0639 nM
IC80, pseudovirus neutralization [12]: 0.204 nM
IC50, pseudovirus neutralization [25]: > 10000 nM
IC80, pseudovirus neutralization [25]: > 10000 nM
IC50, pseudovirus neutralization [26]: > 10000 nM
IC80, pseudovirus neutralization [26]: > 10000 nM
IC50, pseudovirus neutralization [27]: > 10000 nM
IC80, pseudovirus neutralization [27]: > 10000 nM
IC50, pseudovirus neutralization [28]: > 10000 nM
IC80, pseudovirus neutralization [28]: > 10000 nM
IC50, pseudovirus neutralization [29]: 45.1 nM
IC80, pseudovirus neutralization [29]: 83.4 nM

MX501 (A19-46 × A23-58H/B1-182L/A19-61 × A23-58H/B1-182L)
IC50, pseudovirus neutralization [2]: 0.0405 nM
IC80, pseudovirus neutralization [2]: 0.0927 nM
IC50, pseudovirus neutralization [9]: 0.0097 nM
IC80, pseudovirus neutralization [9]: 0.025 nM
IC50, pseudovirus neutralization [12]: 0.0285 nM
IC80, pseudovirus neutralization [12]: 0.0876 nM
IC50, pseudovirus neutralization [25]: > 10000 nM
IC80, pseudovirus neutralization [25]: > 10000 nM
IC50, pseudovirus neutralization [26]: > 10000 nM
IC80, pseudovirus neutralization [26]: > 10000 nM
IC50, pseudovirus neutralization [27]: > 10000 nM
IC80, pseudovirus neutralization [27]: > 10000 nM
IC50, pseudovirus neutralization [28]: > 10000 nM
IC80, pseudovirus neutralization [28]: > 10000 nM
IC50, pseudovirus neutralization [29]: 20.5 nM
IC80, pseudovirus neutralization [29]: 77.2 nM

S2E12 (antibody)
IC50, pseudovirus neutralization [14]: 8.8 nM
IC80, pseudovirus neutralization [14]: 38.5 nM
